From patent US20170145086A1 (VISTERRA, published 2017) come the findings set out here.

Experiment [1] deals with T1, human APRIL variant V181E (Homo sapiens, UniProt O75888).
T1 construct: one of the variants grouped under m24
T1 sequence (APRIL monomer, looked up): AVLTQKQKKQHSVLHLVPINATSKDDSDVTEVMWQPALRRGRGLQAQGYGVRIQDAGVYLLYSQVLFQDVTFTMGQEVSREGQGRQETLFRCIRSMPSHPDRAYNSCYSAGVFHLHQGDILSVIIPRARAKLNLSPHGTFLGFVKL
The experiment can be described thus: ELISA on the human APRIL variant V181E [panel V181E]. Here is the method: (§1) Antibody binding to human and mouse variants was assessed by ELISA. […] FLAG-tagged APRIL was captured from cell culture media using anti-FLAG antibody. The results are shown in FIGS. 23A-23B, 24A-24B, and 25A-25B. Differentiated epitope mapping of exemplary anti-APRIL antibodies was performed by site directed mutagenesis. Primary characterization of human APRIL binding site was carried out by site-directed mutagenesis of select amino acid positions within APRIL followed by evaluation of antibody binding to these variants by ELISA.
Background: ELISA stands for enzyme-linked immunosorbent assay.

Experiment [2] concerns the target human TRAIL (TNFSF10, Adipogen) (human, UniProt P50591 95-281, limits assumed). The experiment can be described thus: indirect ELISA, cytokine coated. Here is the method: (§2) Selected anti-APRIL antibodies were evaluated for potential cross-reactivity with other members of the TNFa superfamily (TNFSF) family of cytokines, including: human TNFα (TNFSF2; Adipogen), human […] (TNFSF4, Adipogen), human FasL (TNFSF6, Adipogen), human TRAIL (TNFSF10, Adipogen), human RANKL (TNFSF11; Adipogen), human Tweak (TNFSF12; Abcam), human and mouse BAFF (TNFSF13B, AB Biosciences and Adipogen, respectively), and human LIGHT (TNFSF14, Adipogen). These cytokines share variable degree of sequence as well as higher order structural homologies. Among them, BAFF appears to be the most closely related to APRIL, with 29% identity and 53% amino acid sequence similarity.
(§3) Binding was evaluated by an indirect ELISA protocol using similar methods described for evaluation of APRIL binding; cytokines were immobilized to ELISA plate at 50 ng per well and then exposed to a solution of each of the test antibodies at a fixed concentration of 10 μg/ml Anti-human or anti-mouse Ig-HRP polyclonal antibody conjugates (Jackson Laboratories) were used for detection of antibody binding. The results presented in FIG. 36 indicated eleven of the twelve antibodies tested in this assay to specifically bind APRIL with no measurable cross-reactivity with the other TNFSF members substantially above assay background.

Experiment [3] addresses human BAFF (TNFSF13B, AB Biosciences) (human, UniProt Q9Y275 134-285, limits assumed). The experiment can be described thus: indirect ELISA, cytokine coated. As to the method:
as §2, §3

Experiment [4] deals with mouse BAFF (TNFSF13B, Adipogen) (mouse, UniProt Q9WU72 127-309, limits assumed). The experiment is described as follows: indirect ELISA, cytokine coated. As to the method: as §2, §3
mouse BAFF (TNFSF13B, Adipogen), sequence (Q9WU72 127-309 limits assumed): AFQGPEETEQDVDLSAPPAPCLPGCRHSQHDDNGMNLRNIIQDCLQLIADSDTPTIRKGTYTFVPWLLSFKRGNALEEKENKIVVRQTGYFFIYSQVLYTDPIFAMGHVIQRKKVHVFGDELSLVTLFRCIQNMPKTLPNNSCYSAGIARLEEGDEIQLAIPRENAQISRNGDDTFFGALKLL
For experiment [5], the target named is T2, human FasL (TNFSF6, Adipogen) (human, UniProt P48023 103-281, limits assumed).
T2 sequence (looked up): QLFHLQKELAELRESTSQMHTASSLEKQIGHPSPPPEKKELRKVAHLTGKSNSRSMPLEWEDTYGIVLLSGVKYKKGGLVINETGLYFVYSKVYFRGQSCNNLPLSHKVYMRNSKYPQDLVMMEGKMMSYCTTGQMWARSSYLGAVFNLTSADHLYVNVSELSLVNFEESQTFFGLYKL
The experiment is described as follows: indirect ELISA, cytokine coated. Here is the method: as §2, §3

In experiment [6] the target is T3, human Tweak (TNFSF12; Abcam) (human, UniProt O43508 94-249, limits assumed).
T3 sequence (looked up): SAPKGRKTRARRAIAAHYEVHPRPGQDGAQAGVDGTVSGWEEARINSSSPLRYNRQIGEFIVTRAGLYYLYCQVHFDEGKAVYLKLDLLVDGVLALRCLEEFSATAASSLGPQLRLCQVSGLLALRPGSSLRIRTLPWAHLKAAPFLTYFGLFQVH
The experiment can be described thus: indirect ELISA, cytokine coated. As to the method: as §2, §3

The target of experiment [7] is human TNFα (TNFSF2; Adipogen) (human, UniProt P01375 85-233, limits assumed). The experiment is described as follows: indirect ELISA, cytokine coated. As to the method: as §2, §3
human TNFα (TNFSF2; Adipogen), sequence (P01375 85-233 limits assumed): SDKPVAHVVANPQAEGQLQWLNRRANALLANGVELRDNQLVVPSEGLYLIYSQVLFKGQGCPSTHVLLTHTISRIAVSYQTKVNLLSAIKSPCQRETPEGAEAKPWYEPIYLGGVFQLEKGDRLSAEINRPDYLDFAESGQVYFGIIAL
Experiment [8] concerns the target T4, human RANKL (TNFSF11; Adipogen) (human, UniProt O14788 152-317, limits assumed).
T4 sequence (looked up): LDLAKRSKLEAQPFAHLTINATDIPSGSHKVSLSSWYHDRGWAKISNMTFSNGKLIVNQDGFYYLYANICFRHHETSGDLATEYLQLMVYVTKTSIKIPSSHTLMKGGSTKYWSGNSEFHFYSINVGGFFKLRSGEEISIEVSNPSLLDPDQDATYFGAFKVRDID
The experiment is described as follows: indirect ELISA, cytokine coated. As to the method: as §2, §3

Experiment [9] addresses human LIGHT (TNFSF14, Adipogen) (human, UniProt O43557 89-240, limits assumed). The experiment is described as follows: indirect ELISA, cytokine coated. As to the method:
as §2, §3

In experiment [10] the target is T5, HA-GCN4 mAPRIL (amino acid residues 96-241) (mouse, UniProt Q9D777 96-241, Assembles as a homotrimer through the GCN4 zipper; one protomer is given.).
T5 construct: Bought (R&D Systems); also called HA-tagged mouse APRIL (R&D Systems); recombinant mouse APRIL; not shown: N-terminal HA tag and GCN4 isoleucine-zipper trimerisation domain, with any linker, of the bought R&D Systems protein
T5 sequence: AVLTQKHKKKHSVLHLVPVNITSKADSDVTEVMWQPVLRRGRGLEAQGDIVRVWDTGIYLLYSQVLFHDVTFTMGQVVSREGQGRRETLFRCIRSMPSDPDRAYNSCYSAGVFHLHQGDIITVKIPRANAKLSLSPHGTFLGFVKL
The experiment is described as follows: indirect ELISA on mouse APRIL; row printed 4504-063, legend paragraph 738 says 4540-063.

Experiment [11] addresses T6, HA-GCN4 hAPRIL (amino acid residues 105-250) (human, UniProt O75888 105-250).
T6 construct: Bought (R&D Systems); also called HA-tagged GCN4 human APRIL; HA-GCN4-huAPRIL; not shown: N-terminal HA tag; GCN4 isoleucine zipper oligomerization domain
T6 sequence: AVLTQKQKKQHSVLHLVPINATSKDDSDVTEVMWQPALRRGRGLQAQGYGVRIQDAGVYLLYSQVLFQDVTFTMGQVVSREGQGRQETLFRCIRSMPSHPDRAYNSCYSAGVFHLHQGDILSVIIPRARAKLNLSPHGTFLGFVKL
The experiment can be described thus: blocking ELISA; blocked: human APRIL binding to BCMA-Fc. As to the method: Recombinant TACI-Fc or BCMA-Fc was coated on 96 well plates in 0.1 M carbonate-bicarbonate buffer (pH 9.6), overnight at 4° C. Plates were washed three times with 1×PBST (PBS+0.025% Tween 20) followed by blocking with 1% BSA in 1×PBS, 37° C. for 1 hour. All subsequent wash steps were carried out with 1×PBST. To assess antibody blocking, either 15 ng/mL or 50 ng/mL HA-GCN4-huAPRIL was preincubated with varying antibody concentrations ranging from 0.03-30 μg/mL in binding buffer comprised of 1% BSA and 0.025% Tween-20 in 1×PBS. Preincubation was carried out at 30° C. for 1 hour with mixing. Antibody-APRIL premix with 50 ng/mL APRIL or 15 ng/mL APRIL was then added to TACI-Fc coated or BCMA-Fc coated plates, respectively, and incubated for an additional hour at 30° C. HA-tagged APRIL binding to either receptor was quantified using a goat polyclonal anti-HA tag-HRP antibody (Abcam) added at a 1:10000 dilution followed by colorimetric development using 100 μl/well of freshly prepared TMB substrate (KPL) carried out for up to 30 minutes at room temperature before quenching enzymatic reaction by the addition of 1N sulfuric acid. ELISA signal was quantified by absorbance at 450 nm. ELISA data was analyzed by non-linear regression. IC₅₀ values were calculated based on a 4 parameter fit of antibody titration curves. […] Non-blocking antibodies Aprly-1 or Aprly-5 (Enzo Biosciences) were used as negative controls. Mouse specific, blocking antibody aprily-1-1 (Adipogen) was generally used as a positive control in experiments using mouse APRIL (HA-GCN4-mAPRIL).
Assay is based on receptor blocking ELISA using recombinant human APRIL (R&D Systems) and either human TACI-Fc (FIG. 30A) or BCMA-Fc (FIG. 30B).

For experiment [12], the target named is T6, HA-GCN4 hAPRIL (amino acid residues …). The experiment is described as follows: blocking ELISA; blocked: human APRIL binding to TACI-Fc.
For experiment [13] the target is unchanged. The experiment is described as follows: cell-based or functional assay.
Experiment [14] has the same target. The experiment is described as follows: indirect ELISA on human APRIL; row printed 4504-063, legend paragraph 738 says 4540-063.
For a further experiment, the target named is T7, pur. muAPRIL (Mus musculus, UniProt Q9D777).
T7 sequence (APRIL monomer, looked up): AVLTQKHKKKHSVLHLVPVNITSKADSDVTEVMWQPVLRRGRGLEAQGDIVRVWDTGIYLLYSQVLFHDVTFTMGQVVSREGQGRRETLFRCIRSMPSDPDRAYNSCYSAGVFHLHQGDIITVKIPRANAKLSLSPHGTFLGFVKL
The experiment can be described thus: ELISA, purified APRIL control. As to the method: as §1

Experiment [15] has as its target T8, FLAG-tagged mouse APRIL (WT muAPRIL and muAPRIL Mutants) (Mus musculus, UniProt Q9D777).
T8 sequence (APRIL monomer, looked up): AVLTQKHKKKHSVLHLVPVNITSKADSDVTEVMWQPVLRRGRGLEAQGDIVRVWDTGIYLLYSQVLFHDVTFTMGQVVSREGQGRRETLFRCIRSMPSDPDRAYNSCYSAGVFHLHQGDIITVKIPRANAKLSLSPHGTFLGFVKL
The experiment is described as follows: ELISA, FLAG-APRIL captured with anti-FLAG antibody. As to the method: as §1

human BAFF (TNFSF13B, AB Biosciences), sequence (Q9Y275 134-285 limits assumed): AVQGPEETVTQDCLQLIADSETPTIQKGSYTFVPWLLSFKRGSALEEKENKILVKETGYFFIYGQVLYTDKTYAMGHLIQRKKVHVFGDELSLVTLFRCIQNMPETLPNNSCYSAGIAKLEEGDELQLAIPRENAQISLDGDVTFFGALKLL
human TRAIL (TNFSF10, Adipogen), sequence (P50591 95-281 limits assumed): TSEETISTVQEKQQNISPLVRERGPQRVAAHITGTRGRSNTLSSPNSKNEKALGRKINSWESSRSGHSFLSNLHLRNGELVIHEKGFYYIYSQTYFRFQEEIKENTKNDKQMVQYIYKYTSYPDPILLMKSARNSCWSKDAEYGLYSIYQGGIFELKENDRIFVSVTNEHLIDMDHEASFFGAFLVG
human LIGHT (TNFSF14, Adipogen), sequence (O43557 89-240 limits assumed): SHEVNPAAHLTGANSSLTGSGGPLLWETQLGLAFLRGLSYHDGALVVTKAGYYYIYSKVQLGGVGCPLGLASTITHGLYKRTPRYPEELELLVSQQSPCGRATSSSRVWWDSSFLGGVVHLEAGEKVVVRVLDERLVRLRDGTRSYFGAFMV

B1: monoclonal antibody 2419 (antibody, V domains shown)
VH: QVQLQQSGAELVKPGASVRLSCEASGYTFTDYTIHWVKQRSGQGLEWIGWIYPLRGSINYNEKFKDKATLTADKSSSTVYLELGRLTSKDSAVYFCARHGAYYSNAFDYWGQGTTLTVSS
VL: NIVMTQSPASLAVSLGQRATISCRASESVDNDGIRFMHWYQQKPGQPPKLLIYRASNLESGIPARFSGSGSRTDFTLTINPVETDDVATYYCQQSNKDPYTFGGGTKLELK
Consider B1, for which the binding result in experiment [1] is recorded as “binds”; in [2] it was “no binding (tested: 10 µg/ml (p-1128))”; in experiment [3] it was “no binding (tested: 10 µg/ml (p-1128))”; in experiment [4], “no binding (tested: 10 µg/ml (p-1128))”; in [5], “no binding (tested: 10 µg/ml (p-1128))”; in experiment [6] it was “no binding (tested: 10 µg/ml (p-1128))”. Further, the binding result in [7], in [8] and in experiment [9] was “no binding (tested: 10 µg/ml (p-1128))” each time.

B2: monoclonal antibody 4540-063 (antibody, IgG1, V domains shown)
VH: QVQLVQSGAELKKPGASVKVSCKASGYTFADYYMNWVRQAPGQGLEWMGWIFPGSGSTYYNQKFQGRVTMTVDKSSSTAYMELSRLRSDDTAVYYCARGDSGRAMDYWGQGTLVTVSS
VL: DIQMTQSPSSLSASVGDRVTITCQASQDINKYLAWYQHKPGKAPKLLIHYTSTLETGVPSRFSGSGSGTDFTFTISSLQPEDIATYYCLQYDNLLTFGGGTKVEIK
As to B2, the EC50 in [10] came out at 0.00156 nM. In addition, in experiment [11], the IC50 worked out at 1.92 nM and the “Relative Activity (normalised to 2419)” value came to 8.11. Besides, in experiment [12], the IC50 amounted to 0.67 nM and the “Relative Activity (normalised to 2419)” value came to 2.43. Besides, in [13], the “IC50 (inhibition of APRIL-mediated BCMA NFκB signaling)” value was about 1.04 nM and the “IC50 (inhibition of APRIL-mediated TACI NFκB signaling)” value is about 7.19 nM. In experiment [14], the EC50 amounted to 0.00206 nM.

B3: monoclonal antibody 4035 (antibody, V domains shown)
VH: QVQLKESGPGLVAPSQSLSITCTVSGFSLTIYDVHWVRQSPGKGLEWLGVIWSDGSTDYNAAFISRLSISKDNSKSQVFFKMNSLQADDTAIYYCARNWVDQAWFAYWGQGTLVTVSA
VL: DIQMTQSPASLSASVGETITITCRASKNIYSYLAWYQQKQGKSPQLLVYNAKTLPEGVPSRFSGSGSGTQFSLKINSLQPEDFGSYYCQHHYGTPLTFGAGTKLELK
notes: mouse-derived
As to B3, the binding result with pur. muAPRIL was “no binding”; in [15], “no binding”; in experiment [2], “no binding (tested: 10 µg/ml (p-1128))”; in experiment [3], “no binding (tested: 10 µg/ml (p-1128))”; in [4] it was “no binding (tested: 10 µg/ml (p-1128))”; in experiment [5], “no binding (tested: 10 µg/ml (p-1128))”. The binding result in [6], in experiment [7], in [8] and in [9] was “no binding (tested: 10 µg/ml (p-1128))” each time.

As usually defined, the EC50 is the concentration needed to bring the measured effect to its halfway point. Lower therefore signals a more potent agent. Broadly, the IC50 is the concentration that inhibits the measured activity by half. Low readings indicate greater potency, high ones weaker potency.
